Laboratory results published in paper PMC9687680 (2022).
Values belong to the compound of their own block, whether it stands above or below them.

Assays:
[1] = tested on: CD133 aptamer (hybrid RNA-DNA, 10-bp DNA GC stem) (DNA:RNA, aptamer, 2'-fluoro on all pyrimidines (C and U) of the RNA part; 5-methyl-dC (printed 5'-methyl-dC) in the DNA stem) CGCGCGCCGCUCCUACAUAGCGGCGCGCG; experiment: DOX fluorescence quenching; details: DOX 10 µM, aptamer 1-10 µM, 30 min; >90% quenching at aptamer:DOX 0.27
[2] = tested on: CD133 aptamer (hybrid RNA-DNA, 10-bp DNA GC stem) (DNA:RNA, aptamer, 2'-fluoro on all pyrimidines (C and U) of the RNA part; 5-methyl-dC (printed 5'-methyl-dC) in the DNA stem) CGCGCGCCGCUCCUACAUAGCGGCGCGCG; experiment: ITC; details: Mg2+ 2.5 mM, PBS (Na+, K+), 25 °C, DOX 100 µM injected, aptamer 2 µM or 100 µM (supplement)
[3] = target: T1, CD133 on PLC/PRF/5 cells (human) (UniProt O43490); experiment: flow cytometry (cell binding); details: PLC/PRF/5 cells, 37 C, Aptamer folded in PBS with 2.5 mM Mg2+ (85 C 5 min, RT, 37 C 15 min), binding to cells in PBS-based blocking buffer, 30 min, CD133-negative HEK293T cells …
T1 sequence: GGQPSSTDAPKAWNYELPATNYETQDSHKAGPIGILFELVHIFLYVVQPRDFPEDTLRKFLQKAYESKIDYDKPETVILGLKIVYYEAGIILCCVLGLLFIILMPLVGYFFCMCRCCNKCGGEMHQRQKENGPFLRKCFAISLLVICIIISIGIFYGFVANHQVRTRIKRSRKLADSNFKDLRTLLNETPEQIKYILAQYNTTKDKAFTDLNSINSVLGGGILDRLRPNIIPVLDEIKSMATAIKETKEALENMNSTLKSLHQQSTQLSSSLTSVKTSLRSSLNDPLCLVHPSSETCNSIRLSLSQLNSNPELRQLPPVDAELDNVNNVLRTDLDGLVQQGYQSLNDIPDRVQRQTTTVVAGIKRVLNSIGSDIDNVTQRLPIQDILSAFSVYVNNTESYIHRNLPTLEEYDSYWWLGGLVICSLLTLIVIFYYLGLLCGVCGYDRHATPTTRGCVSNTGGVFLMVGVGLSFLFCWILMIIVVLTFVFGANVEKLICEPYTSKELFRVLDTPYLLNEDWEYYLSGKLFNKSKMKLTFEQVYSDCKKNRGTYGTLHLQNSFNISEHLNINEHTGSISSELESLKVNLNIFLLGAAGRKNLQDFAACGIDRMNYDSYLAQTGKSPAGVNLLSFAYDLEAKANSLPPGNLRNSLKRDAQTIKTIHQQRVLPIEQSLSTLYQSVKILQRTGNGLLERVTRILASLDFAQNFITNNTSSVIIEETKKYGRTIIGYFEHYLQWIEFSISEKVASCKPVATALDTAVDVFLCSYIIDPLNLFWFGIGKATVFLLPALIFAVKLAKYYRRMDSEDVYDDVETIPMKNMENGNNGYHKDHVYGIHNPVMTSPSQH

[4] = target: T2, CD133 on Huh7 cells (human) (UniProt O43490); experiment: flow cytometry (cell binding); details: Huh7 cells, 37 C, Aptamer folded in PBS with 2.5 mM Mg2+ (85 C 5 min, RT, 37 C 15 min), binding to cells in PBS-based blocking buffer, 30 min, CD133-negative HEK293T cells …
T2 sequence: T1 sequence

[5] = 2'-O-methyl instead of 2'-fluoro on pyrimidines (C and U)
[6] = apparent Kd, 2'-fluoro on all pyrimidines, 5-methyl-dC in stem, hexylamine cap at 3' end

binding [1]: yes
KD [2]: 634 nM
Compound: COc1cccc2c1C(=O)c1c(O)c3c(c(O)c1C2=O)C[C@@](O)(C(=O)CO)C[C@@H]3O[C@H]1C[C@H](N)[C@H](O)[C@H](C)O1

Compound: CGCGCGCCGCUCCUACAUAGCGGCGCGCG [negative control CD133 aptamer (2'-OMe)]
Kd [3, 5]: > 1000 nM
Kd [4, 5]: > 1000 nM

Compound: CGCGCGCCGCUCCUACAUAGCGGCGCGCG [CD133 aptamer (RNA loop, DNA GC stem)]
Kd [3, 6]: 11 nM
Kd [4, 6]: 27 nM
